Measured values: article PMC12516561 (2025)

B1: iRhom2 wild type (HA-tagged) [human] / V5-tagged FRMD8 [not stated] (parent complex)
chain 1: MASADKNGGSVSSVSSSRLQSRKPPNLSITIPPPEKETQAPGEQDSMLPEGFQNRRLKKSQPRTWAAHTTACPPSFLPKRKNPAYLKSVSLQEPRSRWQESSEKRPGFRRQASLSQSIRKGAAQWFGVSGDWEGQRQQWQRRSLHHCSMRYGRLKASCQRDLELPSQEAPSFQGTESPKPCKMPKIVDPLARGRAFRHPEEMDRPHAPHPPLTPGVLSLTSFTSVRSGYSHLPRRKRMSVAHMSLQAAAALLKGRSVLDATGQRCRVVKRSFAFPSFLEEDVVDGADTFDSSFFSKEEMSSMPDDVFESPPLSASYFRGIPHSASPVSPDGVQIPLKEYGRAPVPGPRRGKRIASKVKHFAFDRKKRHYGLGVVGNWLNRSYRRSISSTVQRQLESFDSHRPYFTYWLTFVHVIITLLVICTYGIAPVGFAQHVTTQLVLRNKGVYESVKYIQQENFWVGPSSIDLIHLGAKFSPCIRKDGQIEQLVLRERDLERDSGCCVQNDHSGCIQTQRKDCSETLATFVKWQDDTGPPMDKSDLGQKRTSGAVCHQDPRTCEEPASSGAHIWPDDITKWPICTEQARSNHTGFLHMDCEIKGRPCCIGTKGSCEITTREYCEFMHGYFHEEATLCSQVHCLDKVCGLLPFLNPEVPDQFYRLWLSLFLHAGVVHCLVSVVFQMTILRDLEKLAGWHRIAIIFILSGITGNLASAIFLPYRAEVGPAGSQFGLLACLFVELFQSWPLLERPWKAFLNLSAIVLFLFICGLLPWIDNIAHIFGFLSGLLLAFAFLPYITFGTSDKYRKRALILVSLLAFAGLFAALVLWLYIYPINWPWIEHLTCFPFTSRFCEKYELDQVLH
chain 2: MDGTEGSAGQPGPAERSHRSSVSSVGARAADVLVYLADDTVVPLAVENLPSLSAHELHRAVREVLQLPDIALDVFALWLVSPLLEVQLKPKHQPYKLGRQWPELLLRFTSAPDDDVAMDEPFLQFRRNVFFPKRRELQIHDEEVLRLLYEEAKGNVLAARYPCDVEDCEALGALVCRVQLGPYQPGRPAACDLREKLDSFLPAHLCKRGQSLFAALRGRGARAGPGEQGLLNAYRQVQEVSSDGGCEAALGTHYRAYLLKCHELPFYGCAFFHGEVDKPAQGFLHRGGRKPVSVAISLEGVHVIDSREKHVLLGLRFQELSWDHTSPEEEEPILWLEFDGDSEGTPVNKLLKIYSKQAELMSSLIEYCIELSQAAEPAGPQDSATGSPSDPSSSLAPVQRPKLRRQGSVVSSRIQHLSTIDYVEDGKGIRRVKPKRTTSFFSRQLSLGQGSYTVVQPGDSLEQG

Variants of: B1
Assay: co-immunoprecipitation (HA-IP) with western blot quantification; iRhom1/2 DKO HEK293T cells co-transfected with V5-tagged FRMD8; three independent experiments; read off a plot

Row | ratio to parent | Variant
1 | ~1.1 | chain 1 P233A, chain 1 R234A, chain 1 R235A, chain 1 K236A, chain 1 R237A, chain 1 M238A, chain 1 S239A
2 | ~1.2 | chain 1 S239A
3 | ~1.05 | chain 1 P233A, chain 1 R234A, chain 1 R235A, chain 1 K236A, chain 1 R237A, chain 1 M238A
